# Measured values from patent publication US20190031771A1 (University of Pennsylvania, published 2019).
# B1: scFv 1-420 (scFv, V domains shown)
# VH: QVQLVQSGAEVKKPGSSVKVSCKASGGAFTMYTINWVRQAPGRGLEWMGRIIPILGITDYAQKFQGRGTITADKSTSTAYLELSGLTSEDTAVYYCAREFSGGNYFDFWGQGTLVTVSS
# VL: ELELTQPPSVSISPGKTAKIFCGGNSIGRKSVHWYQQKPGQAPVLVVYDDSDRPSGIPERFSGSNSGNTATLTISRVEAGDEADYYCQVWDSSSDYVVFGGGTKLTVL
# B2: scFv 1-428 (scFv, V domains shown)
# VH: EVQLVQSGAEVKKPGSSVKVSCKASGSNFSSHTINWVRQAPGHGLEWMGKIIPVLDISKDAETFLGRVVITADKSTSTAYMELSSLRSEDTAIYYCAMDSVYGNFDFWGQGTLVTVSS
# VL: ELELTQPPSVSVSPGQTARITCSGDALPKQYAYWYQQKPGQAPVLVIYKDSERPSGIPERFSGSSSGTTVTLTISGVQAEDEADYYCQSADSSGTYEVFGGGTKLTVL
# B3: scFv 1-431 (scFv, V domains shown)
# VH: QVQLVQSGAEVKKFGSSVKVSCKASGGTFSSYTMSWVRQAPGQGLEWMGSFVPILERANYAQGFQGRVTFTADKSTSTAYMELGSLRSEDTAVYYCARDLGDFGDSWGQGTLVTVSS
# VL: ELELTQPPSVSVSPGQTARITCSGDALPKQYAYWYQQKPGQAPVLVIYKDSERPSGIPERFSGSSSGTTVTLTISGVQAEDEADYYCQSADSSGTYVFGGGTKLTVL
# Target: T1, hemagglutinin ectodomain of influenza virus H1/PR/8/34 (influenza virus H1/PR/8/34, UniProt P03452 18-528)
# T1 construct: extracellular domain; also called HA H1/PR/8/34
# Experiment: immunoassay or flow cytometry
# T1 sequence (P03452 18-528): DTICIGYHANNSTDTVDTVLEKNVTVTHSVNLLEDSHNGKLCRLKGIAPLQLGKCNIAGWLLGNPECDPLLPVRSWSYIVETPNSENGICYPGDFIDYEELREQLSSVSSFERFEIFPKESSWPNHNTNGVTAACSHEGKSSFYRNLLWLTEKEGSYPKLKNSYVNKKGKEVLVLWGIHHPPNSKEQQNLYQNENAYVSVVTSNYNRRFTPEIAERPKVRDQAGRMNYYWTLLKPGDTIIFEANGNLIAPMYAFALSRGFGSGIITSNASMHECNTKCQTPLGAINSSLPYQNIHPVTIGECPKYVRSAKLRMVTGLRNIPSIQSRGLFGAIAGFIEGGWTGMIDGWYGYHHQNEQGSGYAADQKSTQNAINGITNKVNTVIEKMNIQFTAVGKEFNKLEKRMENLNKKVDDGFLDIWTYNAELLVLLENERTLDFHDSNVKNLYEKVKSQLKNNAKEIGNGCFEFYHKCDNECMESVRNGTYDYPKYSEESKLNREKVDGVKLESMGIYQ
row,Binder,binding result
1,B1,no binding
2,B2,no binding
3,B3,no binding

# Target: T2, human ADAMTS13 (human, UniProt Q76LX8 75-1427)
# T2 sequence (looked up): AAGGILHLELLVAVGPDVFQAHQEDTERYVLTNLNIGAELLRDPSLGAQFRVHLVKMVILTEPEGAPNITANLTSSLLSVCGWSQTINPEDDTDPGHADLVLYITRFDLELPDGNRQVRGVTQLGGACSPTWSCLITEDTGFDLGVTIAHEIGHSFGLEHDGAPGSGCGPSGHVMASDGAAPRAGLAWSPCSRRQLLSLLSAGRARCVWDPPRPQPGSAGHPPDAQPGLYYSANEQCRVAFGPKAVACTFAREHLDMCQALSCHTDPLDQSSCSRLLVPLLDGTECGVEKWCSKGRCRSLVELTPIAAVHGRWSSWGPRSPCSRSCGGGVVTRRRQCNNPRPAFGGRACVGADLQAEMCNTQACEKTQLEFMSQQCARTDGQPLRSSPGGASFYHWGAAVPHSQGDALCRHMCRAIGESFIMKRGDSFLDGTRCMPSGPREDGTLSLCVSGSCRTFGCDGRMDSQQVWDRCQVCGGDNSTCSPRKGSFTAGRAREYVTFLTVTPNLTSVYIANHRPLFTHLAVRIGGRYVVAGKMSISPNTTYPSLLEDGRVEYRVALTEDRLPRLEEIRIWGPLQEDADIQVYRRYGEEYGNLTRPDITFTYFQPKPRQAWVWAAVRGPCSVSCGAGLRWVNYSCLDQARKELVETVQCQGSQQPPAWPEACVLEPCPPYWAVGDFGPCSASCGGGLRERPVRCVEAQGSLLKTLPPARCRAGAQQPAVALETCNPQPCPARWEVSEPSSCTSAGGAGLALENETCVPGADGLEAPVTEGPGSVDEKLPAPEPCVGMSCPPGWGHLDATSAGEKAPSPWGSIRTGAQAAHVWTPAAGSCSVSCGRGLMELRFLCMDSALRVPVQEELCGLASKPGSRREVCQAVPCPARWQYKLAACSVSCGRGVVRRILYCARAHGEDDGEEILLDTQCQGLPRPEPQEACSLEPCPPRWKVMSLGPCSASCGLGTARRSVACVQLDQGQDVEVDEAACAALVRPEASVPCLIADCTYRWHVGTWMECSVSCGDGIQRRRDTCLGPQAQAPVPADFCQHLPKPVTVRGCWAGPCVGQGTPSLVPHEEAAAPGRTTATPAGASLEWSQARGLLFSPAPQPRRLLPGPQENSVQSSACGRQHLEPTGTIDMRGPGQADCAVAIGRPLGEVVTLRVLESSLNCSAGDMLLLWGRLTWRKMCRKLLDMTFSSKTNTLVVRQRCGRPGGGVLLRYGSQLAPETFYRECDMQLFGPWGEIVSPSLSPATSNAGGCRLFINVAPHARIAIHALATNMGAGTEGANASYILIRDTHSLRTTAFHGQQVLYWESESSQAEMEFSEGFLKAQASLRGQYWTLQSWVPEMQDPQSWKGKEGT
# Experiment: cell-based or functional assay
row,Binder,% ADAMTS13 activity in presence of scFv inhibitor (no rabbit IgG) [%]
1,B1,0
2,B2,7
3,B3,19
